Assay results as given in patent US10138466B2, “Compositions and methods for differentiating stem cells into cell populations comprising beta-like cells” (REGENERATIVE MEDICAL SOLUTIONS, INC., priority 2014, dated 2018).

Tested on: hESCs
Experiment: Activin A alone in serum-free medium, pancreatic cell differentiation
Format: cell-based, human
Conditions: Activin A at 5 ng/ml, 50 ng/ml, or 100 ng/ml in serum-free medium
Excerpt: Activin is a member of the TGF-β superfamily and has various effects on diverse biological systems (Abe Y, et al. Growth Factors 2004 June; 22(2):105-10; herein incorporated by reference in its entirety). Activin A has been reported to have a role in the induction of definitive endoderm from hESCs (D'Amour, K. A., et al. (2005); herein incorporated by reference in its entirety).

B1: Activin A: member of the TGF-β superfamily (protein, UniProt P08476 311-426, looked up)
Inhibin beta A chain: GLECDGKVNICCKKQFFVSFKDIGWNDWIIAPSGYHANYCEGECPSHIAGTSGSSLSFHSTVINHYRMRGHSPFANLKSCCVPTKLRPMSMLYYDDGQNIIKKDIQNMIVEECGCS
modifications: Inhibin beta A chain
notes: member of the TGF-β superfamily
B1 was tested, and the “induction of pancreatic cell differentiation” value was “cannot induce pancreatic cell differentiation”.
